This is an account of results in PMC3614016.

One experiment addresses PCNA (Homo sapiens) (UniProt P12004). The conditions noted are these: cited from earlier work.
Experiment [1] deals with mutant human PCNA (surface-exposed cysteines mutated, N107C), unlabeled (human) (UniProt P12004). Nature of the experiment: stopped-flow FRET between Cy3-P/T DNA and Cy5-PCNA, trapping experiment with polδ; As a2, with polδ at a ratio of 1:1:1 PCNA:Cy5-PCNA:polδ. The substrates were Cy3-P/T DNA, Cy3-P/T DNA-No Flap and Cy3-P/T DNA-25 bp. The read-out is the overall amplitude of reloading over that of unloading (0.5 = all unlabeled PCNA unloaded, 1.0 = all unlabeled PCNA kept on DNA).

For orientation: Kd means the constant that tells how readily two partners part at equilibrium. For RFC (from UniProt P35251), the Kd in the experiment with PCNA (Homo sapiens) was 0.2 nM.
In the case of “wild-type human DNA polymerase δ (polδ) (complex)”, in experiment [1], the A (T,Reload)/A (T,Unload) with polδ (Cy3-P/T DNA) was 1, the A (T,Reload)/A (T,Unload) with polδ (Cy3-P/T DNA-25 bp) was found to be 1 and the A (T,Reload)/A (T,Unload) with polδ (Cy3-P/T DNA-No Flap) stood at 0.99.
